Test results published in patent US20110293610A1 (published 2011).

target: T1, biotinylated B Lymphocyte Stimulator, soluble form (human, UniProt Q9Y275 134-285, biotinylated with NHS-biotin, molar ratio 20:1 biotin:protein); assay: phage scFv, receptor binding inhibition on IM9 cells
T1 construct: also called bio-B Lymphocyte Stimulator; free B Lymphocyte Stimulator
Experimental: All of the unique phage scFvs from panel 2 were assessed for their ability to inhibit B Lymphocyte Stimulator binding to its cognate receptor on IM9 cells. The biotinylation of B Lymphocyte Stimulator, maintenance of IM9 cells and receptor binding inhibition assay were performed as described in Example 3.

binding result | Binder
binds | I075F12 (scFv) scFv: QVQLVQSGAEVKKPGSSVKVSCKASGGTVSSRTISWVRQAPGQGLEWMGGSLPPSGAPIYAQKFQGRVAITADALTNTAFMELRSLKSDDTAVYYCARDQGRYLDLWGQGTMVTVSSGGGGSGGGGSGGGGSAQAVLTQPSSASGTPGQRATISCSGSSSDIGINAVNWYKQLPRTAPKLLIYRNNQRPSGVPDRFSGSKSGTSASLAIIGLQSEDEADYYCATWDDSLTAYVFGTGTKVTVLG
binds | I072B09 (scFv) scFv: QVQLQQSGAEVKKPGASVKVSCRASGYTFTKYTMHWVRQAPGQGPEWMGWINGGSGDTKYSRKFQGRVTITKDTSASAAYMELSSLGSEDTALYYCARATYDPLTGYSFDGFDIWGQGTLVTVSSGGGGSGGGGSGGGGSSELTQDPAVSVALGQTVRITCQGDSLRSYYTNWFQQKPGQAPLLVVYAKNKRPSGIPDRFSGSSSGNTASLTITGAQAEDEADYYCNSRDSSGNHVVFGGGTKLTVLD
binds | I069B07 (scFv) scFv: QVQLVQSGAEVKKPGASVKVSCKASGYTFTSYGISWVRQAPGQGLEWMGWISAYNGNTNYAQKLQGRVTMTTDTSTSTAYMELRSLRSEDTAVYYCARMEYDILTGYYGGYFDYWGQGTMVTVSSGGGGSGGGGSGGGGSQSVLTQPASVSGSPGQSITISCTGTSSDVGGYNYVSWYQQHPGKAPKLMIYEGSKRPSGVSNRFSGSKSGNTASLTISGLQAEDEADYYCSSYTTRSTRVFGGGTKLTVLG
binds | I026C04-R (scFv) scFv: QVQLVQSGAEVKKPGSSVKVSCRASGGSFNRHAISWVRQAPGRGLEWMGGILPMYGTANYAQKFQGRVTITADKLTNTVYMDLSRLRYEDTAVYYCARELGLSIVGATTGALDMWGKGTLVTVSSGGGGSGGGGSGGGGSAQSVLTQPPSVSAAPGQKVTISCSGSSSNIGNNYVSWYQQIPGTAPKLLIYENNKRPSGIPDRFSGSKSGASATLDITGLQTGDEADYYCGTWHSSQVVFGGGTKLTVLG
binds | I068C08 (scFv) scFv: QVQLQQSGAEVKKPGSSVKVSCQASGGSFSREGISWVRQAPGHGLEWMGRIIPVLGVADYAQKFQGRVKISVDRLTSVAYMELTSLRFEDTAVYYCAREGMNDFINSHHYYTMDAWGQGTLVTVSSGGGGSGGGGSGGGGSAQAVLTQPSSVSGAPGQRVTISCTGSSSNIGAGYDVHWYQQLPGTAPKLLIYGNSNRPSGVPDRFSGSKSGTSASLAITGLQAEDEADYYCQSYDSSLSGSVFGGGTKLTVLG
binds | I068B04 (scFv) scFv: QVQLVQSGAEVKKPGSSVKVSCKASGGTVSSRTISWVRQAPGQGLEWMGGSLPPSGAPIYAQKFQGRVAITADALTNTAFMELRSLKSDDTAVYYCARDQGRYLDLWGRGTLVTVSSGGGGSGGGGSGGGGSALPVLTQPPSASATPGQRVTISCSGSSSNIGSNYVYWYQQLPGTAPKVLIYRNNQRPSGVPDRFSGSRSGTSASLAISGLRSEDEADYYCATWDDSLSGPVFGGGTKVTVLG
binds | I064C04 (scFv) scFv: QVQLVQSGAEVKKPGASVKVSCEASGYTFTSYGISWVRQAPGQGLEWMGWISTYNGNTRYPQKLQGRVTMTTDTSTSTAYMDLRSLRSDDTAVYYCARDGRLSYDILTGYYARDYYGMDDWGRGTMVTVSSGGGGSGGGGSGGGGSQSVLTQPASVSGSPGQSITISCTGTSSDVGGYNYVSWYQQHPGKAPKLMIYEGSKRPSGVSNRFSGSKSGNTASLTISGLQAEDEADYYCSSYTTRSTRVFGGGTKLTVLG

The next lines start with the binder.

Binder | binding result
I078D08 (scFv) scFv: QVNLRESGGGLVQPGGSLRLSCAASGFTFSSYWMSWVRQAPGKGLEWVANIKQDGSEKYYVDSVKGRFTISRDNSKNTLYLQMNSLRAEDTAVYYCARDAQSYYDILTGYQSYAFDIWGQGTTVTVSSGGGGSGGGGSGGGGSSELTQDPAVSVALGQTVRITCQGDSLRSYYTNWFQQKPGQAPLLVVYAKNKRPSGIPDRFSGSSSGNTASLTITGAQAEDEADYYCHSRDSSGNHVLFGGGTKLTVLG | binds
I030A10 (scFv) scFv: QVQLVQSGAEVKKPGSSVKVSCRASGGSFNHAISWVRQAPGRGLEWMGGILPMYGTANYAQKFQGRVTITADKLTNTVYMDLSRLRYEDTAVYYCARELGLSIVGATTGALDMWGRGTLVTVSSGGGGSGGGGSGGGGSAQAVLTQPSSVSGAPGQRVIISCTGSSSNIGPDYDVHWYQQLPGTAPKLLIYGNNNRPSGVPDRFSGSKSGTSASLAITGLQAEDEAHYYCQSYGSSLSGVVFGGGTKVTVLG | binds
I067F05 (scFv) scFv: QVQLQQSGAEVKKPGSSVKVSCKASGGTFSSYAISWVRQAPGQGLEWMGRIIPIVNMANYAQKFQGRVTLTADKSTGTAYMELTSLRSEDTAVYYCARENYDSLTGYYGAFDIWGKGTMVTVSSGGGGSGGGGSGGGGSQSVLTQPASVSGSPGQSITISCTGTSSDVGGYNYVSWYQQHPGKAPKLMIYEGSKRPSGVSNRFSGSKSGNTASLTISGLQAEDEADYYCSSYTTRSTRVFGGGTKLTVLG | binds
I065F08 (scFv) scFv: QVQLQQSGAEVKKPGSSVKVSCKASGDTFSSFGISWVRQVPGQGLEWMGAIIPKFDIVTYAEEFKGRVTISADKLTNTAYMEVKSLRSEDTAVYYCTREKSAAGYFDYWGKGTLVTVSSGGGGSGGGGSGGGGSDIVMTQSPSTLSASVGDRVTITCRASQGISSWLAWYQQKPGRAPKVLIYKASTLESGVPSRFSGSGSGTDFTLTISSLQPEDFATYYCQQSYSTPWTFGQGTKLEIKR | binds
I002A01-R (scFv) scFv: QVQLVQSGAEVKKPGSSVKVSCRASGGSFNRHAISWVRQAPGRGLEWMGGILPMYGTANYAQKFQGRVTITADKLTNTVYMDLSRLRYEDTAVYYCARELGLSIVGATTGALDMWGKGTLVTVSSGGGGSGGGGSGGGGSALPVLTQPPSVSVAPGQTATLTCGGTNFGRQSVHWYQQKPGQAPVLAIYHDDVRPSGIPERLSGSKSGNTATLTISRVEAGDEAAYYCQVWDSGSDVVVFGGGTKLTVLG | binds
I002A01-K (scFv) scFv: QVQLVQSGAEVKKPGSSVKVSCRASGGSFNKHAISWVRQAPGRGLEWMGGILPMYGTANYAQKFQGRVTITADKLTNTVYMDLSRLRYEDTAVYYCARELGLSIVGATTGALDMWGKGTLVTVSSGGGGSGGGGSGGGGSALPVLTQPPSVSVAPGQTATLTCGGTNFGRQSVHWYQQKPGQAPVLAIYHDDVRPSGIPERLSGSKSGNTATLTISRVEAGDEAAYYCQVWDSGSDVVVFGGGTKLTVLG | binds
I065D08 (scFv) scFv: GVQLVQSGAEVKKPGASVKVSCKASGYTFTSYGISWVRQAPGQGLEWMGWISAYNGNTNYAQKLQGRVTMTTDTSTSTAYMELRSLRSDDTAVYYCARTPSSVYDLLTGYYHYFYSYMDVWGRGTMVTVSSGGGGSGGGGSGGGGSQSVLTQPASVSGSPGQSITISCTGTSSDVGGYNYVSWYQQHPGEAPKLMIYEGSKRPSGVSNRFSGSKSGNTASLTISGLQAEDEADYYCSSYTTRSTRVFGGGTKLTVLG | binds
I067B10 (scFv) scFv: QMQLVQSGAEVKKPGASVKVSCKASGYTFTSYYMHWVRQAPGQGLEWMGWINAGNSNTKYSQKFQGRVTITSDTSASTAYMELSGLRSEDTAVYYCARDRGAPNYDILTGYYAPAQGVAFDIWGKGTLATVSSGGGGSGGGGSGGGGSQSVLTQPPSVSAAPGQKVTISCSGSTSNIGNNYVSWYQQHPGKAPKLMIYDVSKRPSGVPDRFSGSKSGNSASLDISGLQSEDEADYYCAAWDDSLSEFLFGTGTKLTVLG | binds
I068F03 (scFv) scFv: EVQLVQSGADVKKPGASVKVSCKASHYPFTTYGVSWVRQAPGQGLEWMGWISNYNGHTRYAPKFQGRVTLTTDTLTNTAFMELKSLTSDDTAIYYCARAGNEYGHTERPADYWGKGTMVTVSSGGGGSGGGGSGGGGSAQAVLTQPSSVSGAPGQRVTISCTGSSSNIGAGYDVHWYQQLPGTTPKLLISRNNNRPPGVPDRFSGSKSGTSASLAITGLQAEDEADYYCQSYDTTLRGWVFGGGTKVTVLG | binds
I075G01 (scFv) scFv: QVQLVQSGAEVKKPGASVKVSCKTSGYTFTGYNINWVRQAPGQGLEWMGWVSPSNGDTSYAQTFQGRVTMTRDTSISTAYMELSSLKSDDTAVYYCARDHFDTLTGYFRRLDSWGQGTLVTVSSGGGGSGGGGSGGGGSALSSELTQDPEVSVALGQTVTITCQGDSLITHYASWFQQKPGQAPLLVFYSKDKRPSGIPDRFSGSYSGNTASLTITGAQAEDEADYYCNSRDSRGKNHVAFGGGTKLTVLG | binds
I064C07 (scFv) scFv: QVQLVQSGAEVKKPGSSVKVSCKASGGTFSSYAISWVRQAPGQGLEWMGGIIPIFGTANYAQKFQGRVTITADDLTRTAYMEMSSLKFEDTAVYYCASSEGTIFGVDWGRGTLVTVSSGGGGSGGGGSGGGGSDIQMTQSPSFLSASVGDRVTITCRASQGINNYLAWYQQKPGRAPKLLMYAASSLQSGVPSRFSGSGSGTDFTLTISSLQPEDFATYYCLQDSDYPLTFGGGTKLEIKR | binds
I078D02 (scFv) scFv: QVQLQQSGAEVKKPGASVKVSCKASGYTFTSYGISWVRQAPGQGLEWMGWISAYNGNTNYAQKLQGRVTMTTDTSTSTAYMELRSLRSDDTAVYYCARVYYDILTGYNLFFDYWGKGTMVTVSSGGGGSGGGGSGGGGSQSVLTQPASVSGSPGQSITISCTGTSSDVGGYNYVSWYQQHPGKAPKLMIYEGSKRPSGVSNRFSGSKSGNTASLTISGLQAEDEADYYCSSYTTRSTRVFGGGTKLTVLG | binds
I078H08 (scFv) scFv: QVQLVQSAAEVKKPGASVKVSCKASGYTFTSYGISWVRQAPGQGLEWMGWISAYNGNTNYAQKLQGRVTMTTDTSTSTAYMELRSLRSDDTAVYYCARVYYDILTGYNLFFDYWGRGTTVTVSSGGGGSGGGGSGGGGSQSVLTQPASVSGSPGQSITISCTGTSSDVGGYNYVSWYQQHPGKAPKLMIYEGSKRPSGVSNRFSGSKSGNTASLTISGLQAEDEADYYCSSYTTRSTRVFGGGTKLTVLG | binds
